Series [1] in a line: Specific activity of ribonucleoside diphosphate conversion enzyme solutions (TLC, UV 260 nm). To be noted: 1 mM uridine diphosphate, 30° C., pH 7.0, with the co-substrate of each enzyme. Type of series: biochemical. On the procedure:
Reaction solution (2) was prepared by adding 10 μL of 1 M sucrose aqueous solution and 10 μL of sucrose synthase aqueous solution (D7-1) to 1 mL of aqueous solution R (50 mM phosphate buffer (pH of 7.0) containing 100 mM sodium chloride, 10 mM magnesium chloride, and 1 mM uridine diphosphate). Three such reaction solutions (2) were prepared and allowed to react at 30° C. for 5 minutes, 10 minutes, and 15 minutes, respectively. As for the amount of compound (C-7) as the reaction product (uridine diphosphate-glucose), the reaction product was developed on TLC (PEI-Cellulose plate available from Sigma-Aldrich Corporation, hereinafter the same) (developing solvent: an aqueous solution containing 1 M LiCl and 1 M formic acid, hereinafter the same), and detected with a UV light (260 nm). The specific activity of sucrose synthase aqueous solution (D7-1) was calculated to be 0.3 U/μL from the relationship between the yield of compound (C-7) and the reaction time.
Reaction solution (3) was prepared by adding 0.1 mg of reduced thioredoxin and 10 μL of ribonucleotide diphosphate reductase aqueous solution (D6-1) to 1 mL of aqueous solution R. Three such reaction solutions (3) were prepared and allowed to react at 30° C. for 5 minutes, 10 minutes, and 15 minutes, respectively. As for the amount of compound (C-6) as the reaction product (deoxyuridine diphosphate), the reaction product was developed on TLC and detected with a UV light (260 nm). The specific activity of ribonucleotide diphosphate reductase aqueous solution (D6-1) was calculated to be 0.3 U/μL from the relationship between the yield of compound (C-6) and the reaction time. […]
Reaction solution (5) was prepared by adding 10 μL of nucleotidase aqueous solution (D3-1) to 1 mL of aqueous solution R. Three such reaction solutions (5) were prepared and allowed to react at 30° C. for 5 minutes, 10 minutes, and 15 minutes, respectively. For the amount of compound (C-3) as the reaction product (uridine monophosphate), the reaction product was developed on TLC and detected with a UV light (260 nm). […]

Series [2] is described as follows: Enzyme activity ratio (Y1)=Vmax1/Vmax2 of conversion enzyme (Lineweaver-Burk). Type of series: biochemical. The source says: In the present invention, in the case where ribonucleoside diphosphate conversion enzyme (D) is used, an enzyme activity ratio (Y1) calculated from the following formula (1) using enzyme activity Vmax1 and enzyme activity Vmax2 described below is preferably not lower than 0.1 in terms of efficient polysaccharide production and efficient use of the substrate (ribonucleoside diphosphate-monosaccharide (A)). Enzyme activity ratio (Y1)=Vmax1/Vmax2 (1) • Enzyme activity Vmax1: the enzyme activity of ribonucleoside diphosphate conversion enzyme (D) on ribonucleoside diphosphate. • Enzyme activity Vmax2: the enzyme activity of ribonucleoside diphosphate conversion enzyme (D) on ribonucleoside diphosphate-monosaccharide (A).
An enzyme reaction solution (II) containing specific amounts of substrate (ribonucleoside diphosphate or uridine diphosphate-monosaccharide (A)), enzyme (polysaccharide synthase (B) or ribonucleoside diphosphate conversion enzyme (D)), pH adjuster (K), and water is prepared, which is adjusted to a specific temperature and a specific pH. • Phosphate-containing compound (F) is added, if necessary, to the enzyme reaction solution (II) if the enzyme to be used is (D4). Reducing agent (d6) is added if the enzyme is (D6), and raw material (d7) of nucleotide sugar is added if the enzyme is (D7).
After preparation of the enzyme reaction solution (II), it is allowed to stand for enzyme reaction for 1 minute to 100 hours. Next, the amount (X) of the reaction product obtained from the reaction is measured to determine the initial enzyme reaction velocity v. Likewise, the initial enzyme reaction velocity v is determined, using the enzyme reaction solution (II) having a different substrate concentration. A Lineweaver-Burk plot is generated from the above-obtained initial enzyme reaction velocity v and substrate concentration, and the enzyme activity Vmax is determined therefrom.
The enzyme activity Vmax (M/s) is determined using Lineweaver-Burk plot derived from Michaelis-Menten kinetics. […]
In the above measurement, the result determined using ribonucleoside diphosphate conversion enzyme (D) as an enzyme and ribonucleoside diphosphate as a substrate represents Vmax1, and the result determined using ribonucleoside diphosphate conversion enzyme (D) as an enzyme and ribonucleoside diphosphate-monosaccharide (A) as a substrate represents Vmax2. In the case where two or more types of ribonucleoside diphosphate-monosaccharide (A) are used, Vmax2 is determined for each ribonucleoside diphosphate-monosaccharide (A). The enzyme activity ratio (Y1) is also determined for each type from formula (1) using each Vmax2. […]

This is an account of results in patent US9670514B2, “Method for producing polysaccharide” (SANYO CHEMICAL INDUSTRIES, LTD., priority 2011, dated 2017).

Consider “polyribonucleotide nucleotidyltransferase aqueous solution (D5-1): polyribonucleotide nucleotidyltransferase, SEQ ID NO: 6, derived from Escherichia coli”, for which the specific activity in series [1] amounted to 0.3 U/μL. For the same substance, the “enzyme activity ratio (Y1) of each type” value in series [2] (Vmax2 substrates uridine diphosphate-glucuronic acid and uridine diphosphate-N-acetylglucosamine) is no less than 10.
Take “pyruvate kinase aqueous solution (D4-1-1): pyruvate kinase, SEQ ID NO: 4, derived from Escherichia coli”: in series [1], the specific activity is on record as 0.3 U/μL. Further, in series [2] (Vmax2 substrates UDP-glucuronic acid, -N-acetylglucosamine, -N-acetylgalactosamine, -glucose, -mannose, -glucosamine), the “enzyme activity ratio (Y1) of each type” value is given as no less than 10.
In series [1], “sucrose synthase aqueous solution (D7-1): sucrose synthase, SEQ ID NO: 2, derived from Vicia faba” registered a specific activity of 0.3 U/μL. The “enzyme activity ratio (Y1)” value in series [2] (Vmax2 substrate uridine diphosphate-N-acetylglucosamine) and in series [2] (Vmax2 substrate uridine diphosphate-glucuronic acid) was no less than 10 throughout.
